The record followed here is patent publication US20160311887A1 (CAMBRIDGE ENTERPRISE, published 2016).

Residue numbers refer to the chain shown, from its start. Names may count otherwise. Like-named read-outs stand apart in the source and are kept apart here.

In experiment [1] the target is T1, activated Protein C (APC) (human, UniProt P04070 43-197; P04070 212-461).
T1 construct: also called human plasma APC
Put plainly: ratio of rate constants, APC over fXIa. On the procedure: (§1) Rate constants of thrombin and APC inhibition were measured under pseudo-first-order conditions using an excess of serpin over protease (Table 1). Serpin and protease were incubated together for varying lengths of time and the residual activity was determined by adding an excess of chromogenic substrate for the protease (S2238 for thrombin and […] for APC). Residual protease activity was then measured by following the absorbance at 405 nm. Plots of residual protease activity over time gave the observed rate constant kobs. The second-order rate constant, ₖ₂, is the slope of the plot of kobs versus serpin concentration (fitted using a linear regression model). Standard errors of the slope are shown.
(§2) Second-order rate constants of inhibition for inhibition of fXIa by PCI and the P2KP1′K variant were measured under pseudo-first-order conditions using an excess of serpin over protease. Serpin and protease were incubated together for varying lengths of time and the residual activity determined by adding an excess of chromogenic substrate for the protease (S2366). Plots of residual protease activity over time gave the observed rate constant kobs. The second-order rate constant, k₂, is the slope of the plot of kobs versus serpin concentration (fitted using a linear regression model).

Experiment [2] deals with T1, activated Protein C (APC). Put plainly: ratio of rate constants, APC over thrombin. On the procedure: as §1
The target of experiment [3] is T2, fXa (UniProt P00742 41-179; P00742 235-488).
T2 construct: also called factor Xa
T2 sequence (P00742 41-179 limits assumed, form in doubt, chain 1 of 2): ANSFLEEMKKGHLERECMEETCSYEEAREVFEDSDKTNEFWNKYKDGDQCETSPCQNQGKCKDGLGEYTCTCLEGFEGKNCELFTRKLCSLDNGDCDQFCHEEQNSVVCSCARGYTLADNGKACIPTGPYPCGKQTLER
T2 sequence (P00742 235-488 limits assumed, form in doubt, chain 2 of 2): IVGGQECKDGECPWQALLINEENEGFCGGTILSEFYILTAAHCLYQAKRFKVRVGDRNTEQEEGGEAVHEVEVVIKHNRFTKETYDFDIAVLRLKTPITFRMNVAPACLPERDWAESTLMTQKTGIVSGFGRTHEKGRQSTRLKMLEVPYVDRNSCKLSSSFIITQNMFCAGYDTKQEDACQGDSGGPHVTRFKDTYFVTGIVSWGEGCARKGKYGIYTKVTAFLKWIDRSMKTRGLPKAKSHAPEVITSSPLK
Put plainly: pseudo-first-order inhibition kinetics, residual chromogenic activity (S2222). On the procedure: (§3) The inhibition of APC was reduced but still considerable, especially for the variants of α₁AT and the PCI variants in the presence of heparin. However, the specificity of PCI and α₁AT Pitts is not limited to thrombin and APC. […] In order not to inhibit coagulation, our variants also need to be specific for APC over fXa. We therefore also determined the rate constants of inhibition of PCI and α₁AT and their variants for fXa (Table 3). Rate constants were measured under pseudo-first-order conditions using an excess of serpin over protease. Serpin and protease were incubated together for varying lengths of time and the residual activity determined by adding an excess of chromogenic substrate (S2222) for the protease. Plots of residual protease activity over time gave the observed rate constant kobs. The second-order rate constant, k₂, is the slope of the plot of kobs versus serpin concentration (fitted using a linear regression model). Standard errors of the slope are shown (Table 3).

The target of experiment [4] is T1, activated Protein C (APC). Put plainly: ratio of rate constants, APC over fXa. On the procedure: as §3
Experiment [5] deals with T1, activated Protein C (APC). The experiment in a line: pseudo-first-order inhibition kinetics, residual chromogenic activity, with equimolar unfractionated heparin. How it is done:
(§4) PCI, unlike α₁AT, binds heparin and this binding considerably increases its inhibition of thrombin and APC (Pratt & Church, 1992). We therefore tested the inhibition of thrombin and APC by the P1′K and P2KP1′K PCI mutants in the presence of heparin to see if the swap in specificity seen in Table 1 would persist. Rate constants were measured under pseudo-first-order conditions using an excess of PCI over protease. PCI was preincubated with an equimolar concentration of unfractionated heparin for 30 min prior to the experiment. PCI:heparin and protease were incubated together for varying lengths of time and the residual activity after certain timepoints determined by adding an excess of chromogenic substrate for the protease mixed with polybrene to bind the heparin. Plots of residual protease activity over time gave the observed rate constant kobs. The second-order rate constant, k₂, is the slope of the plot of kobs versus serpin concentration (fitted using a linear regression model). Standard errors of the slope are shown. […] This might be due to the substrate pathway or complex dissociation. As for the inhibition in the absence of heparin, the P1′K and P2KP1′K mutants of PCI, unlike the WT protein were specific for APC over thrombin (Table 2).

Experiment [6] addresses T3, thrombin (UniProt P00734 328-622). The description is as above. On the procedure:
as §4

The target in experiment [7] is T1, activated Protein C (APC). Put plainly: pseudo-first-order inhibition kinetics, residual chromogenic activity, no heparin. On the procedure: as §1
The target of experiment [8] is T3, thrombin. Described as above. On the procedure: as §1
In experiment [9] the target is T1, activated Protein C (APC). Put plainly: pseudo-first-order inhibition kinetics (repeated from Table 1). How it is done: as §1
Experiment [10] concerns the target T3, thrombin. The description is as above. On the procedure: as §1
Experiment [11] has as its target T1, activated Protein C (APC). The experiment in a line: ratio of rate constants, APC over thrombin (repeated from Table 1).
The target of experiment [12] is T1, activated Protein C (APC). The experiment in a line: ratio of rate constants with heparin, APC over thrombin. On the procedure:
as §4

Experiment [13] deals with T2, fXa. The experiment in a line: pseudo-first-order inhibition kinetics, residual chromogenic activity.
Experiment [14] has as its target T1, activated Protein C (APC). The experiment is described as above.
The target of experiment [15] is T3, thrombin. Described as above.
The target of experiment [16] is T1, activated Protein C (APC). The description is as above. How it is done:
as §1
This is another data set of the same source.

In experiment [17] the target is T3, thrombin. Described as above. On the procedure:
as §1
The source holds these as a separate data set.

Experiment [18] has as its target T1, activated Protein C (APC). Put plainly: ratio of rate constants, APC over thrombin (repeated from Table 1). On the procedure:
as §1
This is another data set of the same source.

For experiment [19], the target named is T1, activated Protein C (APC). Put plainly: ratio of rate constants, APC over fXIa. On the procedure: APC inhibition is shown for comparison (from Table 1). Standard errors are shown.
as §2, with “In addition we wanted to determine whether FL α₁AT Pitts C232S P2KP1′K affected the intrinsic (contact activation) pathway. Second-order” for “Second-order”, “inhibition” for “inhibition for inhibition”, “FL α₁AT Pitts C232S” for “PCI”, “pseudo first-order” for “pseudo-first-order”, “model). Standard errors of the slope are given.” for “model).”
The source holds these as a separate data set.

Experiment [20] has as its target T1, activated Protein C (APC). Put plainly: ratio of rate constants, APC over fXa (repeated from Table 3). How it is done: as §3
The target in experiment [21] is T3, thrombin. Put plainly: pseudo-first-order inhibition kinetics, residual chromogenic activity (S2238). On the procedure:
as §1

T1 sequence (P04070 43-197, chain 1 of 2): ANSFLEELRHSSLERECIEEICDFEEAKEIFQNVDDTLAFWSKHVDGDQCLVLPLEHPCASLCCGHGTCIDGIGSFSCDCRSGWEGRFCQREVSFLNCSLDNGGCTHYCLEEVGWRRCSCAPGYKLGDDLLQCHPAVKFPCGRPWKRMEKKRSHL
T1 sequence (P04070 212-461, chain 2 of 2): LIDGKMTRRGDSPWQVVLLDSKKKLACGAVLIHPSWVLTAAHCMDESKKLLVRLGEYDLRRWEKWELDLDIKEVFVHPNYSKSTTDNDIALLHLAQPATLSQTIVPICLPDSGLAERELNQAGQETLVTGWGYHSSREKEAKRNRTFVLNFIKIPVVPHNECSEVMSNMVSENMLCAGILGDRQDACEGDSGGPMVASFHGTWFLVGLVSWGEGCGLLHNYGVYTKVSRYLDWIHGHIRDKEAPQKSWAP

B1: A22 WT PCI (other)
chain: APSSRRDFTFDLYRALASAAPSQNIFFSPVSISMSLAMLSLGAGSSTKMQILEGLGLNLQKSSEKELHRGFQQLLQELNQPRDGFQLSLGNALFTDLVVDLQDTFVSAMKTLYLADTFPTNFRDSAGAMKQINDYVAKQTKGKIVDLLKNLDSNAVVIMVNYIFFKAKWETSFNHKGTQEQDFYVTSETVVRVPMMSREDQYHYLLDRNLSCRVVGVPYQGNATALFILPSEGKMQQVENGLSEKTLRKWLKMFKKRQLELYLPKFSIEGSYQLEKVLPSLGISNVFTSHADLSGISNHSNIQVSEMVHKAVVEVDESGTRAAAATGTIFTFRSARLNSQRLVFNRPFLMFIVDNNILFLGKVNRP
notes: Serpin; E. coli, SUMO tag removed; also called A22 wild-type (WT) PCI
As for B1, the “inhibition of APC/fXIa” value in [1] is 0.08 fold. For the same molecule, the “fold inhibition APC/thrombin” value in [2] amounted to 0.02 fold; in [12], 0.4 fold. The “second-order rate constant of inhibition” value with fXa [3] amounted to 10300 M⁻¹ s⁻¹; in experiment [5], 564000 M⁻¹ s⁻¹; in the experiment with thrombin [6], 1.31e+06 M⁻¹ s⁻¹; in experiment [7], 680 M⁻¹ s⁻¹; with thrombin [8], 28200 M⁻¹ s⁻¹; in experiment [9], 680 M⁻¹ s⁻¹. Moreover, in the experiment with thrombin [10], the “second-order rate constant of inhibition” value amounted to 28200 M⁻¹ s⁻¹. Besides, the “fold inhibition APC/fXa” value in experiment [4] was 0.07 fold. For the same molecule, the “inhibition of APC/thrombin” value in [11] is 0.02 fold.

B2: A22 P1′K PCI (other)
chain: B1 chain with S334K
notes: As A22 WT PCI
Turning to B2, the “fold inhibition APC/thrombin” value in experiment [2] turned out to be 40 fold; in experiment [12], 18900 fold. In addition, the “second-order rate constant of inhibition” value came out at 520 M⁻¹ s⁻¹ with fXa [3]; 322000 M⁻¹ s⁻¹ in experiment [5]; 17 M⁻¹ s⁻¹ in the experiment with thrombin [6]; 880 M⁻¹ s⁻¹ in experiment [7]; 22 M⁻¹ s⁻¹ with thrombin [8]. Besides, in [4], the “fold inhibition APC/fXa” value was found to be 1.7 fold.

B3: A22 P2KP1′K PCI (other)
chain: B1 chain with F332K, S334K
notes: As A22 WT PCI
As to B3, the “inhibition of APC/fXIa” value in experiment [1] is 12.2 fold. Moreover, the “fold inhibition APC/thrombin” value in experiment [2] worked out at 9.3 fold; in experiment [12] it was 1330 fold. Besides, the “second-order rate constant of inhibition” value is 146000 M⁻¹ s⁻¹ in experiment [5], 280 M⁻¹ s⁻¹ in experiment [7] and 280 M⁻¹ s⁻¹ in experiment [9]. In addition, the “inhibition of APC/thrombin” value in experiment [11] worked out at 9.3 fold.

B4: FL α1AT Pitts C232S P2KP1′Q (other)
chain: SDPQGDAAQKTDTSHHDQDHPTFNKITPNLAEFAFSLYRQLAHQSNSTNIFFSPVSIATAFAMLSLGTKADTHDEILEGLNFNLTEIPEAQIHEGFQELLRTLNQPDSQLQLTTGNGLFLSEGLKLVDKFLEDVKKLYHSEAFTVNFGDTEEAKKQINDYVEKGTQGKIVDLVKELDRDTVFALVNYIFFKGKWERPFEVKDTEEEDFHVDQVTTVKVPMMKRLGMFNIQHSKKLSSWVLLMKYLGNATAIFFLPDEGKLQHLENELTHDIITKFLENEDRRSASLHLPKLSITGTYDLKSVLGQLGITKVFSNGADLSGVTEEAPLKLSKAVHKAVLTIDEKGTEAAGAMFLEAIKRQIPPEVKFNKPFVFLMIEQNTKSPLFMGKVVNPTQK
Regarding B4, the “second-order rate constant of inhibition” value came to 170 M⁻¹ s⁻¹ with fXa [13], 9000 M⁻¹ s⁻¹ in [14] and 2.9 M⁻¹ s⁻¹ with thrombin [15].

B5: FL α1AT Pitts C232S (other)
chain: B4 chain with K357P, Q359S
notes: Serpin; E. coli, SUMO tag removed; also called α1-antitrypsin Pittsburgh
Turning to B5, the “second-order rate constant of inhibition” value in [16] came out at 108000 M⁻¹ s⁻¹; with thrombin [17] it was 293000 M⁻¹ s⁻¹; with fXa [3] it was 41300 M⁻¹ s⁻¹; in experiment [9], 108000 M⁻¹ s⁻¹; with thrombin [10], 293000 M⁻¹ s⁻¹. Also, the “inhibition of APC/thrombin” value in experiment [18] came to 0.4 fold. Besides, the “fold inhibition APC/thrombin” value in experiment [2] came out at 0.4 fold. For the same molecule, in [4], the “fold inhibition APC/fXa” value was 2.6 fold. For the same molecule, the “inhibition of APC/fXIa” value in [19] was found to be 0.3 fold. Moreover, the “inhibition of APC/fXa” value in experiment [20] is 2.6 fold.

B6: FL α1AT Pitts C232S P2KP1′K (other)
chain: B4 chain with Q359K
notes: E. coli, SUMO tag removed; also called P2KP1′K α1AT; P2KP1′K mutant of α1AT Pitts
Turning to B6, the “second-order rate constant of inhibition” value in experiment [16] was determined as 15100 M⁻¹ s⁻¹; with fXa [3], 120 M⁻¹ s⁻¹; in experiment [9], 15100 M⁻¹ s⁻¹. For the same molecule, the “fold inhibition APC/fXa” value in [4] was determined as 126 fold. In experiment [19], the “inhibition of APC/fXIa” value is 32.2 fold. The “inhibition of APC/fXa” value in experiment [20] is 126 fold. For the same molecule, in the experiment with thrombin [21], the binding result was “no binding (tested: 4 h)”.

B7: FL α1AT Pitts C232S P2RP1′Q (other)
chain: B4 chain with K357R
Consider B7, for which the “second-order rate constant of inhibition” value with fXa [13] was 130 M⁻¹ s⁻¹; in experiment [14] it was 8300 M⁻¹ s⁻¹; with thrombin [15], 5.4 M⁻¹ s⁻¹.
